The values below come from publication PMC10501992, “How Pol α-primase is targeted to replisomes to prime eukaryotic DNA replication” (Molecular Cell, 2023).

Common to all, as to conditions: both partners purified
In one test the target is T1, Mcm3 (budding yeast) (S. cerevisiae, UniProt P24279 1-971).
T1 construct: Mcm3, S. cerevisiae; stood in the assay as a subunit of m2; source: subunit of CMG from S. cerevisiae strain yJY197, purified as described previously
The test is described as follows: cryo-EM structure; budding yeast replisome: 150 nM CMG on fork DNA (39 nt 3′ flap, 60 nt 5′ flap) with 1.5-fold molar excess of Tof1-Csm3, Mrc1 and Pol α-primase; 25 mM HEPES-NaOH pH 7.6, 150 mM NaOAc, 0.5 mM TCEP, 500 μM AMP-PNP, 10 mM Mg(OAc)2, on ice; 10-30% glycerol gradient with glutaraldehyde and BS3 cross-linkers.

The target in test [1] is T2, Pol1 (budding yeast Pol α catalytic subunit) (S. cerevisiae, UniProt P13382 1-1468).
T2 construct: Pol1, S. cerevisiae; modelled: CTD 1271-1468 and CIP box F140-S149; stood in the assay as a subunit of m1; also called Pol1CTD; Pol1CIP; source: subunit of Pol α-primase from S. cerevisiae strain yAE95, purified as described previously
T2 sequence: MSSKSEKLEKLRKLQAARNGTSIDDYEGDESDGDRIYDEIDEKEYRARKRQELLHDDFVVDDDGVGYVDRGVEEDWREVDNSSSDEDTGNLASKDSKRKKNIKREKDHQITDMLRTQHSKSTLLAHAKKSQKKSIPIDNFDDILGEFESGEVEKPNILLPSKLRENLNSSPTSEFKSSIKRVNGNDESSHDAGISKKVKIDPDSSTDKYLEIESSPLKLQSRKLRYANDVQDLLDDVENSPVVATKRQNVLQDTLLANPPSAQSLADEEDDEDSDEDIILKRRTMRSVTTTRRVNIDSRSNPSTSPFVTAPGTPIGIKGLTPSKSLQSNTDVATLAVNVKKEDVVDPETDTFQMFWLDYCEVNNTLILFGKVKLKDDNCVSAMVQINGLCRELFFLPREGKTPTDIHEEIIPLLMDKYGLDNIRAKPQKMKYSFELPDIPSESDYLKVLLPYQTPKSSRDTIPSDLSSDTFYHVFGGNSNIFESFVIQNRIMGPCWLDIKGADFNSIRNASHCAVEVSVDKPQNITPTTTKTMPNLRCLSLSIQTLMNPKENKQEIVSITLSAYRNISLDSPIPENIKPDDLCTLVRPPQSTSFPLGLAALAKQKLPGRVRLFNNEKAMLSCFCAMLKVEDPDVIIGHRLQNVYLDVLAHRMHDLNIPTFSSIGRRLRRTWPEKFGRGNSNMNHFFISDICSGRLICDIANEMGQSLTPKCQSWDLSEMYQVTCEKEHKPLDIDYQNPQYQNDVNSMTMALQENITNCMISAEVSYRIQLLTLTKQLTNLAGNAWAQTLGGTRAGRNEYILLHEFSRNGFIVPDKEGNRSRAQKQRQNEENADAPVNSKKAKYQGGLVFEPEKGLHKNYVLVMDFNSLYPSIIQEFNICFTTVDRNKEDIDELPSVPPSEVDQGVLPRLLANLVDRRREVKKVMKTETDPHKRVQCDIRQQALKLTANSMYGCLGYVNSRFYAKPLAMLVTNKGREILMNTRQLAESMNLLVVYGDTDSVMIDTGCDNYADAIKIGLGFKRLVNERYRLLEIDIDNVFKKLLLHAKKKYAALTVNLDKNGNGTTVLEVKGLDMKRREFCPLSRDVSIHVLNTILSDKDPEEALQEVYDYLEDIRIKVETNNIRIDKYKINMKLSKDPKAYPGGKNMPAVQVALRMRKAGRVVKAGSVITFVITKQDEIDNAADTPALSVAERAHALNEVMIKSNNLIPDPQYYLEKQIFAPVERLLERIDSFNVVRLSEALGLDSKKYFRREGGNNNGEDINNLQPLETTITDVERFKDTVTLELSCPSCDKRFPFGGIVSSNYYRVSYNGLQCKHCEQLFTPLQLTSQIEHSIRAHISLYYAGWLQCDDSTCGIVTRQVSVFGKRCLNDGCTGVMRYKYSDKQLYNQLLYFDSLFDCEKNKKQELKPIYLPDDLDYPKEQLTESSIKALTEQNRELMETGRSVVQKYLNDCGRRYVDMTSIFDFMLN
Described as above.

The next test concerns the target T3, Mcm5 (budding yeast) (S. cerevisiae, UniProt P29496 1-775).
T3 construct: Mcm5, S. cerevisiae; stood in the assay as a subunit of m2; also called Mcm5ZnF; source: subunit of CMG from S. cerevisiae strain yJY197, purified as described previously
T3 sequence: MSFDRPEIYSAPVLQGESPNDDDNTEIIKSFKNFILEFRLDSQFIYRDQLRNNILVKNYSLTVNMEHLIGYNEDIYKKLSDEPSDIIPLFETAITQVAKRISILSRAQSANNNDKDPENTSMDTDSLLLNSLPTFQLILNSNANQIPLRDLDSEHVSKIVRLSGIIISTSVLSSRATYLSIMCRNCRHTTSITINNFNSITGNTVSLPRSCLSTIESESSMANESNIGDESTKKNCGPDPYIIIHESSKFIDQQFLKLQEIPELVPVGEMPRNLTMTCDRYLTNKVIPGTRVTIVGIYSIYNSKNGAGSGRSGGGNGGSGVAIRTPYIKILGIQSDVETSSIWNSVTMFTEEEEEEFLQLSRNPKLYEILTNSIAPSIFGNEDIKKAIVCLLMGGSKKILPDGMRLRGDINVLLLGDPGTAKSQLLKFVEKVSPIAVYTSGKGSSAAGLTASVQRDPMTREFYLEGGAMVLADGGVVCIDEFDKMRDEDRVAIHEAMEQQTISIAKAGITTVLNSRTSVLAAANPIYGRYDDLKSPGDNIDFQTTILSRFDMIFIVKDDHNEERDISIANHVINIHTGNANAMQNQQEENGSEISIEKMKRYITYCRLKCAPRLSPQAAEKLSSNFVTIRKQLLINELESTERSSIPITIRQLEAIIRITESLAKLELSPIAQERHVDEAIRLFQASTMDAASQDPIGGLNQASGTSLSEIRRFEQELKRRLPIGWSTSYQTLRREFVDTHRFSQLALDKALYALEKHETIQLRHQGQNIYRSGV
The test is described as above.

A further test addresses T4, MCM3 (human) (human, UniProt P25205 1-808).
T4 construct: MCM3, human; stood in the assay as a subunit of m19
T4 sequence: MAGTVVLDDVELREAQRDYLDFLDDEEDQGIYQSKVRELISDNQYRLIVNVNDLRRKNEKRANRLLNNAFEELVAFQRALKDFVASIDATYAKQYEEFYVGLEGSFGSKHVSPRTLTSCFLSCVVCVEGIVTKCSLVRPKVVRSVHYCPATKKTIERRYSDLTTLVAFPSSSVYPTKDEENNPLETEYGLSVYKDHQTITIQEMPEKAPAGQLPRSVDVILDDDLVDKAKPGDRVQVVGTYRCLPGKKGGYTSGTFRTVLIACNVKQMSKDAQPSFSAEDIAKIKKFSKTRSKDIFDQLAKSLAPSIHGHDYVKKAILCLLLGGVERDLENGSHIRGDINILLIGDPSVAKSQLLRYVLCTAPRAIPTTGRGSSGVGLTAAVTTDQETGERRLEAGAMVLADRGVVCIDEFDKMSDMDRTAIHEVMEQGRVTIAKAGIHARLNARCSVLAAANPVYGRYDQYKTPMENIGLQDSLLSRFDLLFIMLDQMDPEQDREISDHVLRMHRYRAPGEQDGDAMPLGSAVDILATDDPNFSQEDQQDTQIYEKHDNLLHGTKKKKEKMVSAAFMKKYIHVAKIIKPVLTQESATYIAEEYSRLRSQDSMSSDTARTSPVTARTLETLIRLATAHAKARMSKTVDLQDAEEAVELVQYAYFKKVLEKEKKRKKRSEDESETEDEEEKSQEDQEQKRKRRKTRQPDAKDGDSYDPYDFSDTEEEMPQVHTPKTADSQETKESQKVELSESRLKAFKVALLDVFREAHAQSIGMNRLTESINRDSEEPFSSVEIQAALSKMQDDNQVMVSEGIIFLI
The test is described as follows: cryo-EM structure; human replisome: 150 nM CMG on fork DNA (60 nt or 15 nt 5′ flap) with 1.5-fold molar excess of AND-1, TIMELESS-TIPIN, CLASPIN and Pol α-primase; 25 mM HEPES-NaOH pH 7.6, 150 mM NaOAc, 0.5 mM TCEP, 500 μM AMP-PNP, 10 mM Mg(OAc)2, on ice; 10-30% glycerol gradient with glutaraldehyde and BS3 cross-linkers.

T1 sequence (P24279 whole entry): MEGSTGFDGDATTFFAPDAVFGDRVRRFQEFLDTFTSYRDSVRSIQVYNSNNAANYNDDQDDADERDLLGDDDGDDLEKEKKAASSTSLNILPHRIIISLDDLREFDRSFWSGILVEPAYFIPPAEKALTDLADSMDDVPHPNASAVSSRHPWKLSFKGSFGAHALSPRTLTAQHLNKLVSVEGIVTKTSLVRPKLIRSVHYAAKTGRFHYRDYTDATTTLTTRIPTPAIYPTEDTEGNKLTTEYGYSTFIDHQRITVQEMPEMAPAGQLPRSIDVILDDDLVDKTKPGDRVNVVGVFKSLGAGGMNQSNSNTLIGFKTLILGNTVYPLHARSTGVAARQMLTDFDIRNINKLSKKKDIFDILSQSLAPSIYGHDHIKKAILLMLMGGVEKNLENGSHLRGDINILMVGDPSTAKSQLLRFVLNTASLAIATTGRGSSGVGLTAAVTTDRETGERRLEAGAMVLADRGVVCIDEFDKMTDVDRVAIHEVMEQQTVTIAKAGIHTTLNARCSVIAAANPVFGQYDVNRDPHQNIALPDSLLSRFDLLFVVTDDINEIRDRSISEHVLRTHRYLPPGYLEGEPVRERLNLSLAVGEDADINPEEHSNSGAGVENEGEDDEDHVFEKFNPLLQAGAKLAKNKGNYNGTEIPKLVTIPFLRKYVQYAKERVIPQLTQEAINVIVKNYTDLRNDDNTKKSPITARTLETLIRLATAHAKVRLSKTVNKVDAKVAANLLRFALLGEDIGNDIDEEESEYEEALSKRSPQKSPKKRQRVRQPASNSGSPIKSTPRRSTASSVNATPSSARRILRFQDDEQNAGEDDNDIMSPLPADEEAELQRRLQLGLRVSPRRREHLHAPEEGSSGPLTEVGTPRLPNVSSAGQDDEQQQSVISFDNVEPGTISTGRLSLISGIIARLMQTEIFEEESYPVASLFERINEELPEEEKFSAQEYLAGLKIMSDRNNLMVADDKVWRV

B1: Pri2 (budding yeast primase accessory subunit) (natural protein, S. cerevisiae)
chain: MFRQSKRRIASRKNFSSYDDIVKSELDVGNTNAANQIILSSSSSEEEKKLYARLYESKLSFYDLPPQGEITLEQFEIWAIDRLKILLEIESCLSRNKSIKEIETIIKPQFQKLLPFNTESLEDRKKDYYSHFILRLCFCRSKELREKFVRAETFLFKIRFNMLTSTDQTKFVQSLDLPLLQFISNEEKAELSHQLYQTVSASLQFQLNLNEEHQRKQYFQQEKFIKLPFENVIELVGNRLVFLKDGYAYLPQFQQLNLLSNEFASKLNQELIKTYQYLPRLNEDDRLLPILNHLSSGYTIADFNQQKANQFSENVDDEINAQSVWSEEISSNYPLCIKNLMEGLKKNHHLRYYGRQQLSLFLKGIGLSADEALKFWSEAFTRNGNMTMEKFNKEYRYSFRHNYGLEGNRINYKPWDCHTILSKPRPGRGDYHGCPFRDWSHERLSAELRSMKLTQAQIISVLDSCQKGEYTIACTKVFEMTHNSASADLEIGEQTHIAHPNLYFERSRQLQKKQQKLEKEKLFNNGNH
notes: Pri2, S. cerevisiae; modelled residues 1-5 (N terminus), 44-177 and 181-299 (NTD); stood in the assay as a subunit of m1; also called Pri2NTD; Pri2_(Nterm); source: subunit of Pol α-primase from S. cerevisiae strain yAE95, purified as described previously
Consider B1, for which the binding result (with Mcm3 (budding yeast); in test [1]; with Mcm5 (budding yeast)) was “binds” throughout.

B2: PRIM2 (human primase accessory subunit) (natural protein)
chain: MEFSGRKWRKLRLAGDQRNASYPHCLQFYLQPPSENISLIEFENLAIDRVKLLKSVENLGVSYVKGTEQYQSKLESELRKLKFSYRENLEDEYEPRRRDHISHFILRLAYCQSEELRRWFIQQEMDLLRFRFSILPKDKIQDFLKDSQLQFEAISDEEKTLREQEIVASSPSLSGLKLGFESIYKIPFADALDLFRGRKVYLEDGFAYVPLKDIVAIILNEFRAKLSKALALTARSLPAVQSDERLQPLLNHLSHSYTGQDYSTQGNVGKISLDQIDLLSTKSFPPCMRQLHKALRENHHLRHGGRMQYGLFLKGIGLTLEQALQFWKQEFIKGKMDPDKFDKGYSYNIRHSFGKEGKRTDYTPFSCLKIILSNPPSQGDYHGCPFRHSDPELLKQKLQSYKISPGGISQILDLVKGTHYQVACQKYFEMIHNVDDCGFSLNHPNQFFCESQRILNGGKDIKKEPIQPETPQPKPSVQKTKDASSALASLNSSLEMDMEGLEDYFSEDS
notes: PRIM2, human; modelled residues 1-5 (N terminus) and 17-252 (NTD); stood in the assay as a subunit of m18; also called PRIM2NTD; PRIM2_(Nterm)
For the molecule B2, the binding result with MCM3 (human) is “binds”.
